73 sequences from the supplement of paper PMC6755084 can be followed below.

This series deals with F1*sub RNA substrate (template-directed ligation). The series can be described thus: fraction ligated after 30 min (ligated reads / total reads); higher = more ligase activity; sequences stand for … in GAGACCGCAACTGAAAAGTTGT…AGTTCTGCACGTAGAAGCAAAAGGC
The note with it: 42 °C. In short, it runs like this:
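Ribozyme variants were transcribed with T7 from PCR-amplified oligo-pool templates and gel-purified. Ligated and unligated bands, separated on gel, were reverse transcribed with barcoded primers and sequenced on a MiSeq, with core bases filtered at quality ≥20. Fraction ligated per variant was computed as ligated reads divided by total reads.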
TATACTTGTCGTAAGACCTTTGGATGGGTTA [3d916] gave a fraction ligated of 0.059. The value for TATACTTGTCGTAAGACCTTTGGATGGGTTG [3d917] was 0.719; that for TATACTTGTCGTAAGACCTTTGGATGGGTTGA [2d81] was 0.746. The value for TATACTTGTCGTAAGACCTTTGGATGGTTGA [3d915] was 0.0819; that for TATACTTGTCGTAAGACCTTTGGTGGGTTGA [3d913] was 0.0382; that for TATACTTGTCGTAAGACTTTGGATGGGTTGA [3d893] was 0.758. The value for TATACTTGTCGTAAGCACTTGGATGGGTTGA [3d896] was 0.645. On to TATACTTGTCGTAAGCACTTTGATGGGTTGA [3d897], for which the fraction ligated worked out at 0.703.

Sequence TATACTTGTCGTAAGCACTTTGGAGGGTTGA [3d899] showed a fraction ligated of 0.0271. The value for TATACTTGTCGTAAGCACTTTGGATGGGTTA [3d901] was 0.0196; that for TATACTTGTCGTAAGCACTTTGGATGGGTTG [3d902] was 0.502. The value for TATACTTGTCGTAAGCACTTTGGATGGGTTGA [2d79] was 0.778; that for TATACTTGTCGTAAGCACTTTGGATGGTTGA [3d900] was 0.0214; that for TATACTTGTCGTAAGCACTTTGGTGGGTTGA [3d898] was 0.025. The value for TATACTTGTCGTAAGCATTTGGATGGGTTGA [3d895] was 0.747; that for TATACTTGTCGTAAGCCTTTGGATGGGTTGA [3d894] was 0.68; that for TATACTTGTCGTAGAACTTTGGATGGGTTGA [3d873] was 0.831.

Sequence TATACTTGTCGTAGACACTTGGATGGGTTGA [3d876] registered a fraction ligated of 0.61. TATACTTGTCGTAGACACTTTGATGGGTTGA [3d877]: the fraction ligated worked out at 0.36. With TATACTTGTCGTAGACACTTTGGAGGGTTGA [3d879], the fraction ligated stood at 0.0209.

In turn, TATACTTGTCGTAGACACTTTGGATGGGTTA [3d881] showed a fraction ligated of 0.00736. The value for TATACTTGTCGTAGACACTTTGGATGGGTTG [3d882] was 0.232; that for TATACTTGTCGTAGACACTTTGGATGGGTTGA [2d77] was 0.67; that for TATACTTGTCGTAGACACTTTGGATGGTTGA [3d880] was 0.0359. The value for TATACTTGTCGTAGACACTTTGGTGGGTTGA [3d878] was 0.0282. The value for TATACTTGTCGTAGACATTTGGATGGGTTGA [3d875] was 0.759; that for TATACTTGTCGTAGACCTTTGGATGGGTTGA [3d874] was 0.616; that for TATACTTGTCGTAGCACTTTGGATGGGTTGA [3d872] was 0.787. TATACTTGTCGTGACACTTTGGATGGGTTGA [3d870] displayed a fraction ligated of 0.708.

The sequence TATACTTGTCTAAACACTTTGGATGGGTTGA [3d845] yielded a fraction ligated of 0.791.

Sequence TATACTTGTCTAAGAACTTTGGATGGGTTGA [3d847] returned a fraction ligated of 0.765. For the sequence TATACTTGTCTAAGACACTTGGATGGGTTGA [3d850], the fraction ligated came to 0.766.

TATACTTGTCTAAGACACTTTGATGGGTTGA [3d851] yielded a fraction ligated of 0.719.

As for TATACTTGTCTAAGACACTTTGGAGGGTTGA [3d853], the fraction ligated was found to be 0.0271. The value for TATACTTGTCTAAGACACTTTGGATGGGTTA [3d855] was 0.0424. In the case of TATACTTGTCTAAGACACTTTGGATGGGTTG [3d856], the fraction ligated came to 0.633. The value for TATACTTGTCTAAGACACTTTGGATGGGTTGA [2d75] was 0.797; that for TATACTTGTCTAAGACACTTTGGATGGTTGA [3d854] was 0.0769; that for TATACTTGTCTAAGACACTTTGGTGGGTTGA [3d852] was 0.0368. In turn, TATACTTGTCTAAGACATTTGGATGGGTTGA [3d849] came in with a fraction ligated of 0.811. The value for TATACTTGTCTAAGACCTTTGGATGGGTTGA [3d848] was 0.481. The value for TATACTTGTCTAAGCACTTTGGATGGGTTGA [3d846] was 0.779. The value for TATACTTGTCTAGACACTTTGGATGGGTTGA [3d844] was 0.732; that for TATACTTGTGAAGACACTTTGGATGGGTTGA [3d829] was 0.756. Take TATACTTGTGTAAACACTTTGGATGGGTTGA [3d831]: the fraction ligated stood at 0.799. The value for TATACTTGTGTAAGAACTTTGGATGGGTTGA [3d833] was 0.814.

Consider TATACTTGTGTAAGACACTTGGATGGGTTGA [3d836], for which the fraction ligated came out at 0.756. The value for TATACTTGTGTAAGACACTTTGATGGGTTGA [3d837] was 0.81.

In the case of TATACTTGTGTAAGACACTTTGGAGGGTTGA [3d839], the fraction ligated was determined as 0.0723.

The sequence TATACTTGTGTAAGACACTTTGGATGGGTTA [3d841] displayed a fraction ligated of 0.134. For the sequence TATACTTGTGTAAGACACTTTGGATGGGTTG [3d842], the fraction ligated amounted to 0.809. The value for TATACTTGTGTAAGACACTTTGGATGGGTTGA [2d74] was 0.805; that for TATACTTGTGTAAGACACTTTGGATGGTTGA [3d840] was 0.109; that for TATACTTGTGTAAGACACTTTGGTGGGTTGA [3d838] was 0.0565. The value for TATACTTGTGTAAGACATTTGGATGGGTTGA [3d835] was 0.764; that for TATACTTGTGTAAGACCTTTGGATGGGTTGA [3d834] was 0.721. The value for TATACTTGTGTAAGCACTTTGGATGGGTTGA [3d832] was 0.776; that for TATACTTGTGTAGACACTTTGGATGGGTTGA [3d830] was 0.776. TATACTTGTTAAGACACTTTGGATGGGTTGA [3d828] came in with a fraction ligated of 0.793. The value for TATACTTTCGAAGACACTTTGGATGGGTTGA [3d798] was 0.451; that for TATACTTTCGTAAACACTTTGGATGGGTTGA [3d800] was 0.307. The value for TATACTTTCGTAAGAACTTTGGATGGGTTGA [3d802] was 0.778; that for TATACTTTCGTAAGACACTTGGATGGGTTGA [3d805] was 0.43. As for TATACTTTCGTAAGACACTTTGATGGGTTGA [3d806], the fraction ligated is 0.105. The value for TATACTTTCGTAAGACACTTTGGAGGGTTGA [3d808] was 0.00847; that for TATACTTTCGTAAGACACTTTGGATGGGTTA [3d810] was 0.00702; that for TATACTTTCGTAAGACACTTTGGATGGGTTG [3d811] was 0.145. TATACTTTCGTAAGACACTTTGGATGGGTTGA [2d72] returned a fraction ligated of 0.542. The value for TATACTTTCGTAAGACACTTTGGATGGTTGA [3d809] was 0.0312; that for TATACTTTCGTAAGACACTTTGGTGGGTTGA [3d807] was 0.00703; that for TATACTTTCGTAAGACATTTGGATGGGTTGA [3d804] was 0.754. The value for TATACTTTCGTAAGACCTTTGGATGGGTTGA [3d803] was 0.53. On to TATACTTTCGTAAGCACTTTGGATGGGTTGA [3d801], for which the fraction ligated amounted to 0.539.
